Reference: patent publication US20230250186A1 (published 2023)
Residue numbers refer to the chain shown, from its start.

What was measured:
CD38-His fusion protein = biological target: T1, CD38-His fusion protein (UniProt P28907 43-300, limits assumed); assay: ELISA on coated CD38-His, anti-human IgG HRP
T1 construct: also called target antigen CD38-His; not shown: His tag

[1] = biological target: T2, CD38 protein on the surface of Raji, Daudi, Ramos and RPMI8226 cells (human, UniProt P28907 1-300); assay: cell-based or functional assay
[2] = biological target: T2, CD38 protein on the surface of Raji, …; assay: flow cytometry on Daudi cells
Procedure: (§1) The logarithmic growth phase cells were collected, adjusted to a cell density of 5×10⁶ cells/mL, and pre-cooled on ice. […] 100 μL of cells were taken, and an equal volume of the diluted antibody was added for reaction at 4° C. for 30 min in the dark. After the completion of reaction, the cells were washed twice. The cells were resuspended in 100 μL of the diluted PE Mouse Anti-Human IgG secondary antibodies (purchased from BD Pharmingen), and reacted at 4° C. in the dark for 30 min. After the completion of reaction, the cells were washed twice with a pre-cooled normal saline containing 2% FBS. The cells were resuspended in 400 μL of 1% paraformaldehyde. Flow cytometry (BD Calibur) was used to analyze the binding ability of antibodies to cell surface antigens.

[3] = biological target: T2, CD38 protein on the surface of Raji, …; assay: flow cytometry on RPMI8226 cells
Procedure: as §1

[4] = biological target: T2, CD38 protein on the surface of Raji, …; assay: flow cytometry on Ramos cells
Procedure: as §1

[5] = biological target: T2, CD38 protein on the surface of Raji, …; assay: flow cytometry on Raji cells
Procedure: as §1

antigen CD38 [6] = biological target: T3, antigen CD38 (UniProt P28907 43-300, limits assumed); assay: BIACORE SPR, antibody captured by anti-human IgG-Fab, CD38 as mobile phase
T3 construct: Soluble antigen; also called CD38 antigen
Procedure: (§2) The antibody affinity was analyzed by BIACORE Biomacromolecule Interaction Apparatus (GE).

[7] = biological target: T4, mouse CD38 extracellular protein (mouse, UniProt P56528 45-304); assay: ELISA on coated CD38 extracellular protein
T4 construct: extracellular domain; Purchased; also called CD38 protein molecules of mice
T4 sequence (looked up): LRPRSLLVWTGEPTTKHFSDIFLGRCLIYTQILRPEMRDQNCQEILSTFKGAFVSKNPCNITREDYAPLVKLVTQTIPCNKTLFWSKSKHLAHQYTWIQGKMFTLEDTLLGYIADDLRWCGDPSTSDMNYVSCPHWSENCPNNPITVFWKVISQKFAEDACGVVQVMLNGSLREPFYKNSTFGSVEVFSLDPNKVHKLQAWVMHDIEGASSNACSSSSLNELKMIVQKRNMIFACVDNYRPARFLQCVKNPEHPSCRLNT
Procedure: (§3) The CD38 extracellular proteins (Beijing Yiqiao Shenzhou Biotechnology Co., Ltd.) of different species of human (Human), mouse (Mouse), rat (Rat), cynomolgus monkey (Cynomolgus) and the like were respectively used to coat ELISA strips at 1 mg/ml at 40 overnight. After washing with PBST, 10% fetal bovine serum was added and blocked at 370 for 1 hour. […] After washing with PBST, horseradish peroxidase-labeled goat anti-human IgG HRP secondary antibodies (purchased from Thermo Fisher Scientific) was added and reacted at room temperature for 30 minutes. The plate was washed with PBST (5 times), and the remaining drops were removed as possible on the absorbent paper. 100 ml of TMB (purchased from eBioscience) was added to each well, and placed at room temperature (20±5° C.) in the dark for 1-5 min. 100 ml of 2N H₂SO₄ stop solution was added to each well to quench the substrate reaction, and the OD value was read at 450 nm with a microplate, to analyze the binding ability of the antibody to CD38 protein of different species.

[8] = biological target: T5, rat CD38 extracellular protein (rat, UniProt Q64244 45-303); assay: ELISA on coated CD38 extracellular protein
T5 construct: extracellular domain; Purchased; also called CD38 protein molecules of rats
T5 sequence (looked up): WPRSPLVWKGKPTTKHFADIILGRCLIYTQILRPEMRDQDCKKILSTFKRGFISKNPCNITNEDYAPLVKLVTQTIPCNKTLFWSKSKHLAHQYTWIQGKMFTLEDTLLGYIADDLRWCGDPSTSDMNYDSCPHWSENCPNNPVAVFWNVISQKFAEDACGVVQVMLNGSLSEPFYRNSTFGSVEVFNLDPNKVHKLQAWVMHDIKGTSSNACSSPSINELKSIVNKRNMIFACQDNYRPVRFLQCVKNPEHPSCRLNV
Procedure: as §3

[9] = biological target: T6, cynomolgus monkey CD38 extracellular protein (cynomolgus monkey, UniProt Q5VAN0 44-301); assay: ELISA on coated CD38 extracellular protein
T6 construct: extracellular domain; Purchased; also called CD38 protein molecules of cynomolgus monkeys; Cynomolgus CD38
Procedure: as §3

BSA (BOVOGEN) = BSA (BOVOGEN) (UniProt P02769 25-607); assay: ELISA on coated protein, anti-human IgG HRP
Procedure: Various proteins, such as milk (Beijing Bomed Biotechnology Co., Ltd.), BSA (BOVOGEN), CD19 (Beijing Yiqiao Shenzhou Biotechnology Co., Ltd.), TROP2 (Beijing Yiqiao Shenzhou Biotechnology Co., Ltd.), CD47 (Beijing Magpel Biotech Technology Co., Ltd.), CD38 (Beijing Yiqiao Shenzhou Biotechnology Co., Ltd.), Gas6 (R&D) and AXL (ACRO Biosystems) were respectively used to coat ELISA strips at 1 mg/ml at 4° C. overnight. After washing with PBST, 10% fetal bovine serum was added and blocked at 37° C. for 1 hour. […] After washing with PBST, horseradish peroxidase-labeled goat anti-human IgG HRP secondary antibodies (purchased from ThermoFisher Scientific) was added and reacted at room temperature for 30 minutes. After washing the plate with PBST (5 times), the residual drops were removed as possible on the absorbent paper. 100 ml TMB (eBioscience) was added to each well and placed at room temperature (20±50) in the dark for 1-5 min. 100 ml of 2N H₂SO₄ stop solution was added to each well to quench the substrate reaction, and the OD value was read at 450 nm with a microplate reader to analyze the antibody-protein binding ability.

antigen CD38 [10] = biological target: T3, antigen CD38; assay: BIACORE SPR by the method of Example 4
Procedure: as §2

antigen CD38 [11] = biological target: T3, antigen CD38; assay: binding curve of FIG. 9; method not clearly stated

T6 sequence (Q5VAN0 44-301): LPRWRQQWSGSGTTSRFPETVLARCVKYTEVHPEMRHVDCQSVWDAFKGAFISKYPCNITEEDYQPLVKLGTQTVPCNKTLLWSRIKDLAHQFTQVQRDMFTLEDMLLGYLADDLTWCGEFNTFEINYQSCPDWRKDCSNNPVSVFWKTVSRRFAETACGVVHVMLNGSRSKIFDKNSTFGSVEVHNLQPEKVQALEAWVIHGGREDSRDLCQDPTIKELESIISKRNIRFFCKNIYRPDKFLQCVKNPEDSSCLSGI
Sequence of BSA (BOVOGEN) (P02769 25-607 limits assumed): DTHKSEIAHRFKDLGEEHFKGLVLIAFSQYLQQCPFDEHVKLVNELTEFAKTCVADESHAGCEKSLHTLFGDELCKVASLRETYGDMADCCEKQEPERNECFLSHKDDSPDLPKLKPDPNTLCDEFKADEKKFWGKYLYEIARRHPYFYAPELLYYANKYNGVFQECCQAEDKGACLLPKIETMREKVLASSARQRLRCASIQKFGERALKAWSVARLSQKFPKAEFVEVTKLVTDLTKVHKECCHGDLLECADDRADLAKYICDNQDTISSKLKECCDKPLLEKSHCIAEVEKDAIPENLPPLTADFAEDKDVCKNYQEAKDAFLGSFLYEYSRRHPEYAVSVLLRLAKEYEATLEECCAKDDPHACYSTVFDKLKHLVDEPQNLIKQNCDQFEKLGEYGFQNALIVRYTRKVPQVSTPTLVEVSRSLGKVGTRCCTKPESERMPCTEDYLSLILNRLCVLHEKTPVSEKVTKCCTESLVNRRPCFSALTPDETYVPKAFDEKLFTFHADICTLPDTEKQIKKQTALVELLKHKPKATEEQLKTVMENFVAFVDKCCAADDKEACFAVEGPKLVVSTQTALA

B1: Daratumumab (DARZALEX) (antibody, V domains shown)
VH: EVQLLESGGGLVQPGGSLRLSCAVSGFTFNSFAMSWVRQAPGKGLEWVSAISGSGGGTYYADSVKGRFTISRDNSKNTLYLQMNSLRAEDTAVYFCAKDKILWFGEPVFDYWGQGTLVTVSS
VL: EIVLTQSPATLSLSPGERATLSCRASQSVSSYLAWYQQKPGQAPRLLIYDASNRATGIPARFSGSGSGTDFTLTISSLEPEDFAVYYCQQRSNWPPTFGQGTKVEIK
Q: Which results are given for B1?
A: EC50 (CD38-His fusion protein): 0.151 µg/mL; ADCC EC50, Daudi target cells with NK92MI-CD16a effector cells (LDH release) [1]: 0.0046 µg/mL; ADCC EC50, RPMI8226 target cells with NK92MI-CD16a effector cells (LDH release) [1]: 0.00494 µg/mL; ADCC EC50, Raji target cells with NK92MI-CD16a effector cells (LDH release) [1]: 0.017 µg/mL; ADCC EC50, Ramos target cells with NK92MI-CD16a effector cells (LDH release) [1]: 0.00301 µg/mL; EC50 [2]: 0.0509 µg/mL; EC50 [3]: 0.176 µg/mL; EC50 [4]: 0.0951 µg/mL; EC50 [5]: 0.0493 µg/mL

B2: humanized antibody SG003 (antibody, V domains shown)
VH: QVQLLESGGGLVQPGGSLKLSCVASGFDFSLYWMNWVRQAPGKGLEWIGKINPDSSTINYTPSLKDKFFISRDNAKNTLYLQMTKVRSEDTALYYCARLWIATGGFDYWGQGTTLTVSS
VL: EIVMTQSPASLSASLGQRATISCRASSSVSSSAFSYVHWYQQKSGQPPKLLIYLASNLESGVPARFSGSGSGTDFTLTIHPVESEDVATYYCHHSRELPFTFGSGTKLEIKR
notes: Full antibody expressed in CHO-S cells from vector pCMV-163 with a human IgG constant region; also called SG003 antibody
Q: What does the source list for B2?
A: EC50 (CD38-His fusion protein): 0.0351 µg/mL; ADCC EC50, Daudi target cells with NK92MI-CD16a effector cells (LDH release) [1]: 0.00072 µg/mL; ADCC EC50, RPMI8226 target cells with NK92MI-CD16a effector cells (LDH release) [1]: 0.00146 µg/mL; ADCC EC50, Raji target cells with NK92MI-CD16a effector cells (LDH release) [1]: 0.00697 µg/mL; ADCC EC50, Ramos target cells with NK92MI-CD16a effector cells (LDH release) [1]: 0.00069 µg/mL; Kd (antigen CD38 [6]): 0.321 nM; EC50 [2]: 0.0367 µg/mL; binding result [7]: no binding; binding result [8]: no binding; binding result [9]: binds; binding result (BSA (BOVOGEN)): no binding; EC50 [4]: 0.0815 µg/mL; EC50 [5]: 0.0344 µg/mL

B3: SG003M1 antibody (antibody, human IgG1, kappa, V domains shown)
VH: B2 VH with F27Y, D28N, W33Y, N52Q, D54E, N59Q, A102G, T103S
VL: B2 VL with T20S, S27N, F34Y, L58I, E59Q, E97Q, F100S
notes: also called randomly mutated antibody SG003M1-3
Q: B3 was tested. Which Kd (antigen CD38 [10]) did it give?
A: 0.239 nM

Q: What about the koff (antigen CD38 [10]) of the same binder?
A: 0.000636 s⁻¹

Q: What about the kon (antigen CD38 [10]) of the same binder?
A: 2.66e+06 M⁻¹ s⁻¹

Q: What about the EC50 (antigen CD38 [11]) of the same binder?
A: 0.0157 µg/mL

B4: SG003M3 antibody (antibody, human IgG1, kappa, V domains shown)
VH: B2 VH with N52S, T57S, I58L, L64V, F106Y, D107N
VL: B2 VL with S27N, S31T, L98V
notes: as for B3
Q: For B4, which EC50 (antigen CD38 [11]) is on record?
A: 0.0061 µg/mL

B5: SG003M2 antibody (antibody, human IgG1, kappa, V domains shown)
VH: B2 VH with N52S, D54N, T61S, W100Y, T103S
VL: B2 VL with F34Y, N57D, E59Q, F100Y, T101S
notes: as for B3
Q: How did the EC50 (antigen CD38 [11]) turn out when B5 was run?
A: 0.0278 µg/mL
